Results published in patent US20220389077A1, “ALLOGENEIC CELL COMPOSITIONS AND METHODS OF USE” (Poseida Therapeutics, Inc., priority 2018, published 2022).

What was measured:
CAR-T cells = experiment: Expansion of CAR-T cells with CSR delivered transiently by mRNA or stably by piggyBac; format: cell-based, human; settings: for expansion of CAR-T cells (total live CAR-T cells): 19 day culture, BCMA CAR, CSR transient or stable
Excerpt: FIG. 18 is a graph showing that delivery of CSR enhances the expansion of CAR-T cells. CSRs were delivered to CAR-T cells either transiently by mRNA or stably by piggyBac®. Pan T cells isolated from the blood of a normal donor were genetically modified using the piggyBac® DNA modification system and the standard Poseida process. Cells were co-electroporated in a single reaction with mRNA encoding the Super piggyBac™ transposase enzyme (SPB), a transposon encoding a BCMA CAR and selection gene, along with an additional mRNA encoding a CSR (either CD28z or CD2z; resulting in transient expression) or a CD19 mRNA control, or, with a transposon encoding a BCMA CAR, selection gene and a CSR (either CD28z or CD2z; resulting in stable expression). The cells were subsequently stimulated with agonist mAbs anti-CD2, anti-CD3 and anti-CD28, and were later selected for genetic modification over the course of a 19 day culture period. At the end of the initial culture period all T cells expressed the CAR, indicating successful selection for genetically-modified cells (data not shown). Bars represent total live CAR-T cells in well and numbers indicate fold-enhancement of expansion above CAR-T cells produced in the absence of a CSR or a CD19 mRNA control.
Pan T cells isolated from healthy donor blood were genetically modified using the piggyBac® DNA modification system in combination with the Cas-CLOVER™ gene-editing system (CC) for the production of allogeneic (Allo) CAR-T cells, or without CC gene-editing for the production of autologous (Auto) CAR-T cells; auto CAR-T cells were produced by nucleofection of an mRNA encoding the super piggyBac® transposase enzyme (SPB) and a transposon encoding a CAR, selection gene and a safety switch. […] Following EP, all cells were subsequently stimulated with a cocktail of agonist mAbs anti-CD2, anti-CD3 and anti-CD28, and were later selected for genetic modification over the course of a 19-day culture period using the selection gene. […]

eK562-Luc.BCMA = experiment: Luciferase killing assay, 48 hour co-culture; format: cell-based; settings: 10:1, 3:1, 1:1 E:T
Description: After secondary expansion, cells (Mock (WT T cells), WT CAR-T cells, DKO CAR-T cells, DKO CAR-T cells+CD2z CSR, and DKO CAR-T cells+CD28z CSR) were co-cultured with engineered K562-BCMA-Luciferase (eK562-Luc.BCMA) or negative control line K562-PSMA-Luciferase (eK562-Luc.PSMA) for 48 hours at 10:1, 3:1, or 1:1 E:T ratios. Luciferase signal was measured to determine cytotoxicity. Killing of eK562-Luc.PSMA is shown in dotted lines, while killing of eK562-Luc.BCMA is shown in solid lines. All CAR^+ T cells expressed an anti-BCMA specific CAR.
CSRs were delivered to CAR-T cells either transiently by mRNA or stably by piggyBac®. Pan T cells isolated from the blood of a normal donor were genetically modified using the piggyBac® DNA modification system and the standard Poseida process. Cells were co-electroporated in a single reaction with mRNA encoding the Super piggyBac™ transposase enzyme (SPB), a transposon encoding a BCMA CAR and selection gene, along with an additional mRNA encoding a CSR (either CD28z or CD2z; resulting in transient expression), or, with a transposon encoding a BCMA CAR, selection gene and a CSR (either CD28z or CD2z; resulting in stable expression). The cells were subsequently stimulated with agonist mAbs anti-CD2, anti-CD3 and anti-CD28, and were later selected for genetic modification over the course of a 19 day culture period. At the end of the initial culture period all T cells expressed the CAR, indicating successful selection for genetically-modified cells (data not shown). To assess CAR-T cell ability to kill, cells were co-cultured with engineered K562-BCMA-Luciferase (eK562-Luc.BCMA) or negative control line K562-Luciferase (eK562-Luc) for 48 hours at 10:1, 3:1, or 1:1 E:T ratios. Luciferase signal was measured to determine cytotoxicity. Killing of eK562-Luc is shown in bar graph on left, while killing of eK562-Luc.BCMA is shown in bar graph on right.

[1] = tested on: CAR molecule on the surface of T cells; experiment: Staining for surface expression of CAR after secondary expansion; format: cell-based, human; settings: DKO cells
Excerpt: After secondary expansion, cells (Mock (WT T cells), WT CAR-T cells, DKO CAR-T cells, DKO CAR-T cells+CD2z CSR, and DKO CAR-T cells+CD28z CSR) were stained for the surface-expression of CAR and compared to control WT CAR-T cells and Mock T cells.

Lag3, PD1, and Tim3 = experiment: Flow cytometry for exhaustion molecules; format: cell-based, human; settings: compared to mock T cells
Excerpt: Mock (WT T cells), WT CAR-T cells, DKO CAR-T cells, DKO CAR-T cells+CD2z, and DKO CAR-T cells+CD28z were examined by flow cytometry for the expression of important exhaustion molecules Lag3, PD1, and Tim3. […] This phenotype may have a negative impact on the in vivo functionality of these CAR T cells since they appear to be more exhausted.

purified DKO CAR-T cells = experiment: Re-stimulation and secondary expansion of purified DKO CAR-T cells, with or without IL7 and IL15; format: cell-based, human; settings: 14 day culture; re-stimulation
Description: After initial genetic modification and a first round of stimulation and expansion, cells from each group (Mock (WT CAR-T cells), DKO CAR-T cells, DKO CAR-T cells+CD2z CSR, and DKO CAR-T cells+CD28z CSR) were purified for TCR^−MHCI^− cells using magnetic beads. The purified cells were then re-stimulated using anti-CD2, anti-CD3, and anti-CD28 agonist mAbs. At the end of the 14 day culture period, TCR and MHCI expression (A) as well as magnitude of cell population expansion (B) was determined. After this secondary expansion, all purified DKO cells, including those expressing either CD2z or CD28z CSR, were still extremely pure for DKO cells (>98.8% DKO).
FIG. 11 is a graph showing that cytokine supplementation can further expand purified DKO CAR-T cells expressing CSR upon re-stimulation. After initial genetic modification and a first round of stimulation and expansion, cells expressing CSRs were purified for DKO cells using magnetic beads. The purified cells were then re-stimulated using anti-CD2, anti-CD3, and anti-CD28 agonist mAbs in the presence exogenous purified recombinant IL7 and IL15. At the end of the 14 day culture period, magnitude of cell population expansion was determined. After a secondary expansion, all purified DKO cells, including those expressing either CD2z or CD28z CSR, were still extremely pure for TCR^−MHCI^− cells (>98.8% double knockout (data not shown)). […]

[2] = CAR-T cells with transient (mRNA) or stable (piggyBac) CSR

| Molecule | expansion of CAR-T cells (total live CAR-T cells) (CAR-T cells) | in vitro cytotoxicity (luciferase signal) (eK562-Luc.BCMA; [2]) | in vitro cytotoxicity (luciferase signal) (eK562-Luc.BCMA; DKO CAR-T cells) | surface expression of CAR [1] | expression of exhaustion molecules Lag3, PD1, and Tim3 (Lag3, PD1, and Tim3) | magnitude of cell population expansion compared to those not expressing either CSR (purified DKO CAR-T cells) | expansion of CAR-T cells compared to CAR-T cells produced without a CSR (CAR-T cells; 19-day culture, Auto and Allo CAR-T, CSR stable or mRNA 5, 10, 20 μg) |
| --- | --- | --- | --- | --- | --- | --- | --- |
| CD28z CSR: chimeric stimulatory receptor: CD28 signal peptide, extracellular, transmembrane and cytoplasmic domains with CD3z intracellular domain (SEQ ID NO: 17060) | a greater degree of expansion | not significantly affected | not significantly affected | does not have a significant impact | significant upregulation of exhaustion markers Lag3, PD1, and Tim3 | enhanced expansion | – |
| CD2z CSR: chimeric stimulatory receptor: CD2 signal peptide, extracellular, transmembrane and cytoplasmic domains with CD3z intracellular domain (SEQ ID NO: 17062) (protein) MSFPCKFVASFLLIFNVSSKGAVSKEITNALETWGALGQDINLDIPSFQMSDDIDDIKWEKTSDKKKIAQFRKEKETFKEKDTYKLFKNGTLKIKHLKTDDQDIYKVSIYDTKGKNVLEKIFDLKIQERVSKPKISWTCINTTLTCEVMNGTDPELNLYQDGKHLKLSQRVITHKWTTSLSAKFKCTAGNKVSKESSVEPVSCPEKGLDIYLIIGICGGGSLLMVFVALLVFYITKRKKQRSRRNDEELETRAHRVATEERGRKPHQIPASTPQNPATSQHPPPPPGHRSQAPSHRPPPPGHRVQHQPQKRPPAPSGTQVHQQKGPPLPRPRVQPKPPHGAAENSLSPSSNRVKFSRSADAPAYKQGQNQLYNELNLGRREEYDVLDKRRGRDPEMGGKPRRKNPQEGLYNELQKDKMAEAYSEIGMKGERRRGKGHDGLYQGLSTATKDTYDALHMQALPPR | a greater degree of expansion | not significantly affected | not significantly affected | does not have a significant impact | little to no expression of exhaustion molecules | enhanced expansion | a greater degree of expansion |
